# Molecular target: the molecule itself
# Experiment: dynamic light scattering
row,Protein,stoichiometry N
1,"Wild type (Wt) peroxiredoxin 6 (Prdx6), recombinant rat (enzyme) MPGGLLLGDEAPNFEANTTIGHIRFHDFLGDSWGILFSHPRDFTPVCTTELGRAAKLAPEFAKRNVKLIALSIDSVEDHFAWSKDINAYNGAAPTEKLPFPIIDDKDRDLAILLGMLDPAEKDEKGMPVTARVVFIFGPDKKLKLSILYPATTGRNFDEILRVVDSLQLTASNPVATPVDWKKGESVMVLPTLPEEEAKQLFPKGVFTKELPSGKKYLRYTPQP",2
2,D42A mutant of rat Prdx6 (enzyme) MPGGLLLGDEAPNFEANTTIGHIRFHDFLGDSWGILFSHPRAFTPVCTTELGRAAKLAPEFAKRNVKLIALSIDSVEDHFAWSKDINAYNGAAPTEKLPFPIIDDKDRDLAILLGMLDPAEKDEKGMPVTARVVFIFGPDKKLKLSILYPATTGRNFDEILRVVDSLQLTASNPVATPVDWKKGESVMVLPTLPEEEAKQLFPKGVFTKELPSGKKYLRYTPQP,2
3,H79A mutant of rat Prdx6 (enzyme) MPGGLLLGDEAPNFEANTTIGHIRFHDFLGDSWGILFSHPRDFTPVCTTELGRAAKLAPEFAKRNVKLIALSIDSVEDAFAWSKDINAYNGAAPTEKLPFPIIDDKDRDLAILLGMLDPAEKDEKGMPVTARVVFIFGPDKKLKLSILYPATTGRNFDEILRVVDSLQLTASNPVATPVDWKKGESVMVLPTLPEEEAKQLFPKGVFTKELPSGKKYLRYTPQP,2

# — article PMC11897370 (Scientific Reports, 2025)
